Experiment [1] has as its target δ2K242A (Streptococcus pyogenes plasmid pSM19035).
For experiment [2], the target named is δ2K248S (Streptococcus pyogenes plasmid pSM19035).
For experiment [3], the target named is δ2K259A/K260A (Streptococcus pyogenes plasmid pSM19035).

δ2K242A (enzyme) displayed a stoichiometry N in experiment [1] of 2.

Regarding δ2K248S (enzyme), the stoichiometry N in experiment [2] is 2.

Take δ2K259A/K260A (enzyme): the stoichiometry N in experiment [3] came to 2.

In general, stoichiometry N refers to a count of units in the complex or per binding partner.

The record behind these values is paper PMC3074150.
